Measured values reported in publication PMC3196243 (Biochemistry, 2011).
Like-named read-outs stand apart in the source and are kept apart here.

T1: His6-IC3 (third intracellular loop of the dopamine D2S receptor, R217-Q345) (UniProt P61169-2 217-345)
T1 sequence (looked up): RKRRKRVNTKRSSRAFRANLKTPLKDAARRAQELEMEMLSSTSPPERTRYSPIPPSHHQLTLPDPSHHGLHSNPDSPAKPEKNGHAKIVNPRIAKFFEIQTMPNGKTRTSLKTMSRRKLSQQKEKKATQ

B1: S100B (natural protein)
chain: SELEKAMVALIDVFHQYSGREGDKHKLKKSELKELINNELSHFLEEIKEQEVVDKVMETLDNDGDGECDFQEFMAFVAMVTTACHEFFEHE
B2: IC3-C58 (domain or fragment, UniProt P61169-2 288-345, looked up)
chain: SNPDSPAKPEKNGHAKIVNPRIAKFFEIQTMPNGKTRTSLKTMSRRKLSQQKEKKATQ

What was measured:
[1] = target: T1, His6-IC3 (third intracellular loop of …); test: pull-down
S100B [2] = target: B1; test: NMR titration
S100B [3] = target: B1; test: NMR titration; remark: listed apart in the source

Binder | binding result [1] | Kd (S100B [2]) | Kd (S100B [3])
B1 | binds | – | –
B2 | – | 1 ± 1 µM | 274 ± 58 µM
